Laboratory results taken from patent US8492099B2, “Method of measuring enzymatic activity of adsorbed allergenic enzyme” (Alk-Abello A/S, priority 2005, dated 2013).

Legend:
[1] = target: T1, papain (Carica papaya, UniProt P00784); conditions: 12.5 nM E-64, papain 5 nM
T1 sequence (P00784 134-345): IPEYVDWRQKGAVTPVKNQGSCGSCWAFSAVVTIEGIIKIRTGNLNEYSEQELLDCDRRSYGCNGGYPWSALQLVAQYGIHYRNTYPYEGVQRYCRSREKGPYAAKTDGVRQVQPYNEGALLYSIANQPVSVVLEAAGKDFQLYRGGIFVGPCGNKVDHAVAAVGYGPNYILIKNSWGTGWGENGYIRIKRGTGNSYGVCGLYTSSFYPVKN
Method: Stock solutions of 1M DTT and 100 mM EDTA were made in the beginning of the experimental period, frozen at −20° C., and used through the entire project period. Each day a new buffer was made containing the reducing agent DTT and EDTA from the stock solutions. […] DTT is continuously oxidized by the oxygen in the air and therefore a new buffer must be made each day. […] The microtiter plate was opaque to avoid cross contamination of emitted fluorescence between wells. The substrate was diluted to the final concentration in the newly made buffer containing DTT and EDTA and transferred to the microtiter plate. The enzyme was diluted in the same buffer and incubated 10 min in the case of papain and 20 min in the case of Der p 1, for their activation. Mixing, transferring and incubation were carried out at room temperature. After incubation the enzyme solution was transferred to the microtiter plate and the measurements were initiated. The measurements were carried out for 10 min with a total of 36 measurements for each well and automatic mixture between each measurement.
EDTA was added at 1 mM, and DTT at 5 mM final concentrations.

[2] = Quenching of AMC fluorescence by aluminium hydroxide; type: physicochemical; conditions: 1 μM AMC, during the time of the assay
From the text: This AMC concentration is equivalent to the enzymatic assay AMC concentration generated by papain and Der p 1.

[3] = Der p 1 enzyme activity fluorescence assay (activity measurements and Michaelis-Menten kinetic), Der p 1/aluminium hydroxide adsorption experiment; type: biochemical
Method: After measuring the enzymatic activity the maximal slope of the progress curve was estimated using the software SoftMax® PRO Life Sciences Edition, Molecular Devices, 2001. After estimating the initial velocity of the experiments they were transferred to Prism and analyzed.
After adsorption 500 μL was taken out for further analysis and the rest of the mixture was centrifuged for 10 min at 4000 rpm. An elution step was performed for 1 h at 4° C. where the pellet of Mix2 was resuspended in phosphate buffer. […] Con1 was analyzed in the beginning of the experiment and Con2 was analyzed at the end of the 2 hours experiment.
Different types of enzymatic assays were performed: (i) activity measurements using a fixed substrate concentration to evaluate enzyme activity, and (ii) Michaelis-Menten kinetic to estimate the kinetic parameters Vmax and KM.
All activity assays were conducted with Tris buffer, pH 7.0, 5 mM DTT, 1 mM EDTA and Boc-QAR-AMC as substrate.

[4] = test system: IgE from sera of HDM allergic patients; assay: IgE inhibition assay (ADVIA centaur); type: binding, human
Method: This assay evaluates the capacity that an allergen has to bind IgE from sera of patients allergic to that allergen source.
IgE inhibition experiments were performed on an ADVIA centaur instrument. Serial dilutions (performed with the TECAN (P-05-07F294)) of the inhibitor (Antigen in solution or antigen gel adjuvant vaccine) were mixed with a fixed amount of biotinylated antigen and further incubated with a solid phase absorbed IgE. The amount of biotinylated allergen bound to the solid phase was estimated as the light emitted after incubation with streptavidin labelled with acridinium ester. The raw data was processed in Excel and transferred to GraphPad Prism v. 4.0 for the final analysis (curve fitting, plotting and statistical comparisons). The data was fitted to a four parameter logistic function:
After the adsorption the solution was centrifuged for 5 minutes at 13,000 rpm. […] A Der p extract sample was prepared for incubation with pooled sera IgE.

[5] = Adsorption of Der p 1 to aluminium hydroxide: protein concentration by A280; type: physicochemical
From the text: The aromatic amino acids tryptophan, tyrosine and phenylalanine absorb ultraviolet light. However only tryptophan and tyrosine absorb at 280 nm and tryptophan absorbs 5 times more light than tyrosine. This is due to the […] transition in the indole ring of tryptophan where phenylalanine and tyrosine contains a phenyl group. The absorbance of a protein is linearly correlated with the amount of tryptophan and tyrosine in the protein, the length of the light path and the concentration of protein. This relationship is named Lambert-Beer's law and is given by: A=ε·l·c where A is the absorbance, ε is the molar absorption coefficient for the protein (determined by the amount of tryptophan and tyrosine in the protein) l is the length of the light path and c is the protein concentration. Thus from an absorbance measurement the concentration of protein can be estimated if the molar absorptivity coefficient is known. • Apparatuses • Lambda 800 UV/VIS Spectrometer, PerkinElmer™ • 100-QS, quartz cuvette, path length 1 cm, Hellma® • Materials and Reagents • 50 mM Bis-Tris pH 6.5, Sigma • 50 mM Tris pH 7.0, Sigma • 50 mM phosphate buffer pH 7.0, Merck • 2% Helmanex solution, Hellma Experimental Procedure
The spectrophotometer was turned on 30 min prior to use for a warm up period. The wavelength of the spectrophotometer was set to 280 nm and the instrument was zeroed to a blank sample containing the matrix of the true sample. The quartz cuvette was washed first with a 2% Helmanex solution and then 4 times with MQ water and afterwards dried with high pressure air. […] After cleaning the cuvette 20 μL of sample was transferred to the cuvette and the absorbance was measured.
(§1) After adsorption 500 μL was taken out for further analysis and the rest of the mixture was centrifuged for 10 min at 4000 rpm. […] Con1 was analyzed in the beginning of the experiment and Con2 was analyzed at the end of the 2 hours experiment.
The absorbance measurements were converted to protein concentration by the Lambert-Beer's law using a molar absorption coefficient for Der p 1 of […] as shown in table 8a. […]

[6] = Adsorption of Der p 1 to aluminium hydroxide: protein concentration by rocket immune electrophoresis (RIE); type: physicochemical
From the text: This method was used to quantify a given protein by measuring the propagation of protein-antibody complex after electrophoresis in an agarose gel containing antibodies directed against the protein under investigation.
This method is based on the mobility of protein-antibody complex in an agarose gel during electrophoresis. The antibodies are incorporated into the agarose gel during polymerization and the sample protein is then applied to the wells. The proteins move according to their electrophoretic mobility encountering the antibodies in the gel and forming complexes. These complexes grow in size as the antigen encounters more and more antibodies thereby limiting the migration through the pores of the gel until no further migration occurs. The complexes are visualized by staining the gel. The area delimited by the complexes is proportional to the amount of protein applied to the well. The quantification is performed relative to an internal standard preparation applied in a dilution series on the same gel.
A glass plate was placed on a leveled surface and cleaned with ethanol. 11 mL agarose was pipetted into a test tube in a 56° C. water bath, 15 μL antibody was added, and the solution was mixed gently by inversion. The agarose was poured onto the glass plate carefully avoiding formation of air bubbles. After gelation a series of wells were punched 1.5 cm from the lower edge of the plate. The plate was placed on the cooled surface of the electrophoresis apparatus. Connecting bridges of 5 layers of filter paper were established and the voltage across the gel adjusted to 2V/cm. 10 μL of sample was applied to the wells. […]
as §1
Another method applied to quantify protein content was RIE. The samples Con1, Con2, Sup, and Elu were evaluated together with three Der p 1 standards (125 ng, 250 ng, and 500 ng). […]

[7] = Adsorbed: Der p 1 adsorbed to aluminium hydroxide (mix 2)
[8] = Control: Der p 1 in the absence of aluminium hydroxide
[9] = Eluted: Der p 1 eluted from aluminium hydroxide with phosphate buffer

CC(C)C[C@H](NC(=O)[C@H]1O[C@@H]1C(=O)O)C(=O)NCCCCN=C(N)N (relative stereo) [E-64, L-trans-epoxysuccinyl-L-leucylamido (4-guanidino) butane]
Inhibition of papain enzyme activity [1]: does not completely inhibit

Cc1cc(=O)oc2cc(N)ccc12 [AMC]
Quenching of fluorescence by aluminium hydroxide [2]: no quenching occurred

B1: Der p 1: major house dust mite allergen, family C1 cysteine protease, purified from D. pteronyssinus extract (protein, UniProt P08176 99-320, looked up)
Peptidase 1: TNACSINGNAPAEIDLRQMRTVTPIRMQGGCGSCWAFSGVAATESAYLAYRNQSLDLAEQELVDCASQHGCHGDTIPRGIEYIQHNGVVQESYYRYVAREQSCRRPNAQRFGISNYCQIYPPNVNKIREALAQTHSAIAVIIGIKDLDAFRHYDGRTIIQRDNGYQPNYHAVNIVGYSNAQGVDYWIVRNSWDTNWGDNGYGYFAANIDLMMIEEYPYVVIL
Vmax in Mix2 relative to Vmax in Mix1 [3]: 62% | Vmax in Sup relative to Vmax in Mix1 [3]: 30% | Km [3, 7]: 56 µM | Vmax [3, 7]: 0.15 ng/mL · s | kcat (Vmax/protein concentration, A280) [3, 7]: 0.022 s⁻¹ | kcat (Vmax/protein concentration, RIE) [3, 7]: 0.019 s⁻¹ | Vmax [3, 8]: 0.25 ng/mL · s | kcat (Vmax/protein concentration, A280) [3, 8]: 0.024 s⁻¹ | kcat (Vmax/protein concentration, RIE) [3, 8]: 0.018 s⁻¹ | Km ([3]; Control: Der p 1 in the absence of aluminium hydroxide, Boc-QAR-AMC, pH 7.0): 47 µM | Km [3, 9]: 51 µM | Vmax [3, 9]: 0.11 ng/mL · s | kcat (Vmax/protein concentration, A280) [3, 9]: 0.025 s⁻¹ | kcat (Vmax/protein concentration, RIE) [3, 9]: 0.014 s⁻¹ | Difference between Vmax of Con1 and Mix1 ([3]; Newman Keuls multiple comparison test p>0.05): no significant difference | Activity in Mix2 found in Elu ([3]; Vmax): 68% | Activity of Der p 1 adsorbed to aluminium hydroxide ([3]; activity measurements): 66% | Adsorbed activity desorbed after elution from Mix2 with phosphate buffer ([3]; activity measurements): 67% | Activity of non adsorbed Der p 1 in Sup relative to activity in Mix1 ([3]; activity measurements, 100 μM Boc-QAR-AMC): 33% | Part of the Der p 1 molecules adsorbed to the aluminium hydroxide ([3]; conclusion): 60-70% | Vmax of Con2 lower than Vmax in Con1 ([3]; end vs beginning of 2 hours experiment, absence of aluminium hydroxide, t-test p-value=0.0024): 14% | Difference between KM means of the samples ([3]; one-way ANOVA p-value=0.62): no significant difference | Difference in activity between Con1, Con2 and Mix1 ([3]; one-way ANOVA p-value=0.76, 2 hours experiment): no significant difference | Inhibition of IgE binding, bottom levels of Con1 and Elu ([4]; Der p 1 without aluminium hydroxide (Con1) vs eluted from aluminium hydroxide (Elu)): complete inhibition is possible | Hill slopes of Con1 and Elu ([4]; one sample t-test p=0.83): not significantly different | Adsorbed protein eluted from aluminium hydroxide using phosphate buffer [5]: 56% | Protein content in Con1 found in Sup [5]: 32% | Adsorption degree ([5]; 100 μg/mL Der p 1, 1.14 mg/mL aluminium hydroxide, 1 h at 4° C.): approximately 70% | Adsorbed protein eluted from aluminium hydroxide using phosphate buffer [6]: 98% | Adsorption degree [6]: approximately 56% | Protein content in Con1 found in Sup [6]: 44%
